Measured values from patent US7582299B2, “Cripto-specific antibodies” (Biogen Idec MA Inc., priority 2001, dated 2009).

Key:
T-47D-CR cells = test: Proliferation of T-47D-CR cells with Activin, with or without anti-Cripto mab; type: cell-based, human; settings: low serum; FIG. 6
Experimental: (§1) T47D cells, maintained in RPMI/10% FCS/10 μg/ml insulin, at passage #2 from the ATCC were transfected with an expression plasmid for the Ecotropic Receptor (EcoR; B. Elenbaas) and selected in media containing 100 μg/ml hygromycin. Colonies of T-47D-EcoR that permitted infection of pBABE-GFP murine leukemia virus (MLV) were grown out, infected with pBABE-hCr-PURO-MLV and selected in puromycin media. This oligoclonal line (T-47D-hCr) was analyzed by FACS for hCr (human Cripto) expression with specific anti-Cripto antibodies. Approximately 4000 cells/well of T-47D-EcoR or T-47D-hCr were plated in a 96 well plate in media containing 2% serum with/without 25 ng/ml Activin B (R&D) or […] plus 0.1-50 μg/ml A8G3.5. Media with factors was replaced daily for 7-8 days. The plate was harvested by adding 20 μl/well CellTiter AQueous One solution (Promega), incubating 2 hours 37° C., and reading at 490 nm.
(§2) We grew T-47D and T-47D-EcoR cells in low serum conditions, with or without Activin A or B and assayed for proliferating cells using an MTT colorimetric assay.
We then tested whether antibodies of the invention can inhibit the Cripto-Activin B interaction. We treated T-47D-CR cells with Activin B in the presence of various antibodies of the invention. We observed that the growth suppressive activity of Activin B was restored in the presence of 10 or 20 μg/ml mab A8G3.5 (FIG. 7).

T-47D cells = test: Proliferation of T-47D cells with Activin A or B (MTT); type: cell-based, human; settings: low serum; compared to untreated cells; FIG. 6
Experimental: as §1, §2

CR-Fc [1] = target: T1, CR-Fc (Homo sapiens, UniProt P13385); test: ELISA of CR-Fc on ligand-coated plates; type: binding; settings: for inhibition of CR-Fc binding to Activin B coated plate: CR-Fc pre-incubated with ligand in solution, FIG. 9; for binding of CR-Fc to ligand-coated wells: ELISA plates coated with purified ligand, FIG. 8
T1 sequence (P13385 31-150): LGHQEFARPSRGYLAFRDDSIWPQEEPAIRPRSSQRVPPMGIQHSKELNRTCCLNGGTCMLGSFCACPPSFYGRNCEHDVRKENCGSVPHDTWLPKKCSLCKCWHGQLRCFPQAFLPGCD
Experimental: In still other experiments, we coated 96 well plates by adding to each well 100 μl of 3-5 μg/ml Activin B or another ligand in 50 mM carbonate (pH 9.5). We incubated the plates for 1 hr. at room temperature and blocked overnight with TBS/1% BSA overnight at 4° C. We incubated the plate with CR-Fc or ALK4-Fc in blocking buffer at room temperature, washed in TBST and probed with anti-human-AP (Jackson). We washed the plate in TBST, once in 10× substrate buffer (200 mM Tris-HCl, 10 mM MgCl2, pH 9.8) and added CSPD and Sapphire (Applied Biosystems).
We discovered that Cripto binds directly to Activin B. We coated ELISA plates with purified Activin B, Activin A, TGFβ1, GDNF or BMP2 and incubated with CR-Fc. We then added anti-Fc antibody conjugated to alkaline phosphatase and monitored binding by adding an alkaline phosphatase substrate and developing.

CR-Fc [2] = target: T1, CR-Fc; test: Biacore, CR-Fc immobilized on chip; type: binding; settings: for binding to CR-Fc immobilized on a Biacore chip: FIG. 10
Source text: We also analyzed the Cripto-Activin B interaction using Biacore. […] We also observed that Activin A binding to CR-Fc was negligible.

| Substance | response of T-47D-CR cell proliferation to Activin (T-47D-CR cells) | inhibition of proliferation of T-47D cells (T-47D cells) | inhibition of CR-Fc binding to Activin B coated plate (CR-Fc [1]) | binding of CR-Fc to ligand-coated wells (CR-Fc [1]) | on rate of binding to Cripto (CR-Fc [2]; Biacore) | binding to CR-Fc immobilized on a Biacore chip (CR-Fc [2]) |
| --- | --- | --- | --- | --- | --- | --- |
| Activin B: purified ligand protein (R&D) that binds Cripto and inhibits tumor cell proliferation | not responsive to Activin B | approximately 40% | only Activin B inhibits binding | bound to wells containing Activin B | fast on rate | directly binds CR-Fc immobilized on a Biacore chip with a high intensity |
| Activin A: purified ligand protein tested on T-47D cells and for binding to CR-Fc | inhibited by Activin A | approximately 40% | only Activin B inhibits binding | not to Activin A | – | negligible |
